{"source": "paper PMC3985441", "about": "(Bioscience Reports, 2014)", "target": "T1, p110αEE^E545K/p85α complex (E545K oncogenic mutant PI3Kα) (human, UniProt P42336 1-1068; P27986 1-724, E545K)", "T1 construct": "p110α catalytic subunit of Class 1A PI3K, human, full length, somatic cancer mutation E545K in the helical domain; p85α regulatory subunit of Class 1A PI3K, human, full length; 1:1 heterodimer; also called E545K mutant; p110α^E545K/p85α; not shown: EE tag (glu-tag, 6 amino acids), C-terminal, kept; copies: 1 + 1", "T1 sequence (P42336 whole entry E545K, chain 1 of 2, the tested form may be a part)": "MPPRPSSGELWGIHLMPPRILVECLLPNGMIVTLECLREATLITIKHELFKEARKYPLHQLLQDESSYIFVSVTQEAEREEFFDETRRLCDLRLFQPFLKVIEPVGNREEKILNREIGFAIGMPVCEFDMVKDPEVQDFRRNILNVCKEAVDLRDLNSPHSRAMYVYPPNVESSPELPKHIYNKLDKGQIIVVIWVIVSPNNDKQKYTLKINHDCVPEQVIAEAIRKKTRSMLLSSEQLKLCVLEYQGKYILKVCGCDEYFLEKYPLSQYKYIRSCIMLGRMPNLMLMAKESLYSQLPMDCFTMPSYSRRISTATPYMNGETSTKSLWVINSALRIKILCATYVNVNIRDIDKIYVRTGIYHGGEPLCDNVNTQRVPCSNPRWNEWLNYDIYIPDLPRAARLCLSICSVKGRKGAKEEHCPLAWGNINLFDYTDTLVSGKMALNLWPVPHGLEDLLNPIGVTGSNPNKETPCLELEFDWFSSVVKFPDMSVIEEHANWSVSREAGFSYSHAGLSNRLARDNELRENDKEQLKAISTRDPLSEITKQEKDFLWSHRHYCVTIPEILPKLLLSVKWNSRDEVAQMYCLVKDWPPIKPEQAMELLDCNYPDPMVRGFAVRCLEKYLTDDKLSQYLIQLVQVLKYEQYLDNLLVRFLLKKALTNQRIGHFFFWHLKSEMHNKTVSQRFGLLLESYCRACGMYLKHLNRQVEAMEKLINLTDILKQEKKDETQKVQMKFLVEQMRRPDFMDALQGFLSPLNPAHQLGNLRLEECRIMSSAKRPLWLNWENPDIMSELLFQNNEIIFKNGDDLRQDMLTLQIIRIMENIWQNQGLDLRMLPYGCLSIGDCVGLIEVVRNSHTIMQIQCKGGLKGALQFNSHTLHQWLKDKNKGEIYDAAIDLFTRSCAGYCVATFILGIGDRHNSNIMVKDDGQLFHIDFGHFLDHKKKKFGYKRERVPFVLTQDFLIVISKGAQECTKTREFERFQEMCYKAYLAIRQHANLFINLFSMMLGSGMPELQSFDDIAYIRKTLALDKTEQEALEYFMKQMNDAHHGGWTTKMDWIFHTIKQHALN", "T1 sequence (P27986 whole entry, chain 2 of 2, the tested form may be a part)": "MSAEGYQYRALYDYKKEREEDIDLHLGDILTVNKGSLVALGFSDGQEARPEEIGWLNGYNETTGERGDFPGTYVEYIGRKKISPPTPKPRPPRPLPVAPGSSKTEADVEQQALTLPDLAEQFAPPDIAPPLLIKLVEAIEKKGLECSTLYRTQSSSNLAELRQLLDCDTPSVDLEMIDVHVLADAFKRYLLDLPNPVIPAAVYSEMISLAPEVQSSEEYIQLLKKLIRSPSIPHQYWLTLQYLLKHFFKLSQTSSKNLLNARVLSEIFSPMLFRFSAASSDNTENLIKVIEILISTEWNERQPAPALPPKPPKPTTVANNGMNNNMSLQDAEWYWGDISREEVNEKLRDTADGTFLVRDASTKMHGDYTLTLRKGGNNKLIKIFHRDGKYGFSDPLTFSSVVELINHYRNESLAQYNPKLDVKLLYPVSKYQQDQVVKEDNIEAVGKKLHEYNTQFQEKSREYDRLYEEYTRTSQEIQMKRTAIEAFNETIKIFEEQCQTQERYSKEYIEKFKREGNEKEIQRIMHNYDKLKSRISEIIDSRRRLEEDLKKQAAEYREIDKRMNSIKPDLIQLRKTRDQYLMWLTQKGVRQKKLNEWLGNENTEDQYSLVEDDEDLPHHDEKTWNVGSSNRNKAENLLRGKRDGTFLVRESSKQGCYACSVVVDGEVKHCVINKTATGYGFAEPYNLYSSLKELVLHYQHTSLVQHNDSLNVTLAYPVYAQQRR", "experiment": "pull-down; GST fusion proteins (1 μg) on glutathione agarose, PI3Kα complexes (100–3200 ng) in solution; TBS with 10% (v/v) FBS, 1 h at 4°C; washes in TBS with 0.1% Tween 20; bound PI3Kα detected by immunoblot for p85α", "settings": "both partners purified", "data": [{"binder": "GST-V12 Cdc42 (constitutively active Cdc42Hs) (natural protein, Cdc42Hs, human, constitutively active (V12) form; Plasmid courtesy of Professor Anne Ridley; also called GST-Cdc42; source: E. coli BL21 (DE3), purified (glutathione agarose)) not shown", "values": [{"measurement": "binding result", "result": "binds"}]}]}
